Experimental data reported in patent US20210338852A1 (NIHON MEDI PHYSICS, published 2021).

Tests used:
[1] = target: T1, mucin subtype 5AC (MUC5AC) (human (from transplanted human …, UniProt P98088 28-5654, limits assumed)); assay: in vitro autoradiography; mean of small ROIs in MUC5AC positive vs negative tumor sections
T1 construct: Secretory mucin glycoprotein; target present in tumor tissue sections, not as purified protein

[2] = target: T1, mucin subtype 5AC (MUC5AC); assay: in vitro autoradiography; whole-section ROI of MUC5AC positive vs negative tumor sections

binding ratio to the MUC5AC positive tumor and the negative tumor [1] [fold]	binding ratio to the MUC5AC positive tumor and the negative tumor [2] [fold]	Binder
6.5		^225Ac-labeled anti-MUC5AC humanized antibody prepared using ^225Ac-labeled DOTAGA-DBCO (monovalent antibody; H01L03) (antibody, human IgG1, kappa, V domains shown, Fc region site-specifically modified (Lys252, Eu numbering) by one molecule per antibody of antibody-modification peptide (SEQ ID NO: 10 with Xaa2 = lysine, disulfide between its two cysteines, N-terminal diglycolic acid-PEG8-ethyl azide); azide click-reacted with ^225Ac-chelated DOTAGA-DBCO, also called RI-labeled anti-MUC5AC humanized antibody prepared using ^225Ac-labeled DOTAGA-DBCO; ^225Ac-labeled antibody) VH: EVQLLESGGGLVQPGGSLRLSCAASGFTFSNYGMSWVRQAPGKGLEWVSTISNSGRYTYFPDSVKGRFTISRDNSKNTLYLQMNSLRAEDTALYYCTRHLDYANYDAMDYWGQGTLVTVSS VL: DIQMTQSPSSLSASVGDRVTITCRASKSVTTSDFSYMHWYQQKPGKSPKLLIYLASNLESGVPSRFSGSGSGTDFSLTISSLQPEDFATYYCQHSREFPWTFGGGTKVEIKR
	138	^89Zr-labeled anti-MUC5AC humanized antibody prepared using ^89Zr-labeled DOTAGA-DBCO (monovalent antibody; H01L03) (antibody, human IgG1, kappa, V domains shown, Fc region site-specifically modified (Lys252, Eu numbering) by one molecule per antibody of antibody-modification peptide (SEQ ID NO: 10 with Xaa2 = lysine, disulfide between its two cysteines, N-terminal diglycolic acid-PEG8-ethyl azide); azide click-reacted with ^89Zr-chelated DOTAGA-DBCO, also called RI-labeled anti-MUC5AC humanized antibody prepared using ^89Zr-labeled DOTAGA-DBCO; ^89Zr complex-labeled antibody) VH: EVQLLESGGGLVQPGGSLRLSCAASGFTFSNYGMSWVRQAPGKGLEWVSTISNSGRYTYFPDSVKGRFTISRDNSKNTLYLQMNSLRAEDTALYYCTRHLDYANYDAMDYWGQGTLVTVSS VL: DIQMTQSPSSLSASVGDRVTITCRASKSVTTSDFSYMHWYQQKPGKSPKLLIYLASNLESGVPSRFSGSGSGTDFSLTISSLQPEDFATYYCQHSREFPWTFGGGTKVEIKR
	151	^89Zr-labeled anti-MUC5AC humanized antibody prepared using ^89Zr-labeled DOTA-Bn-DBCO (monovalent antibody; H01L03) (antibody, human IgG1, kappa, V domains shown, Fc region site-specifically modified (Lys252, Eu numbering) by one molecule per antibody of antibody-modification peptide (SEQ ID NO: 10 with Xaa2 = lysine, disulfide between its two cysteines, N-terminal diglycolic acid-PEG8-ethyl azide); azide click-reacted with ^89Zr-chelated DOTA-Bn-DBCO (formula L1-4), also called RI-labeled anti-MUC5AC humanized antibody prepared using ^89Zr-labeled DOTA-Bn-DBCO) VH: EVQLLESGGGLVQPGGSLRLSCAASGFTFSNYGMSWVRQAPGKGLEWVSTISNSGRYTYFPDSVKGRFTISRDNSKNTLYLQMNSLRAEDTALYYCTRHLDYANYDAMDYWGQGTLVTVSS VL: DIQMTQSPSSLSASVGDRVTITCRASKSVTTSDFSYMHWYQQKPGKSPKLLIYLASNLESGVPSRFSGSGSGTDFSLTISSLQPEDFATYYCQHSREFPWTFGGGTKVEIKR
